# Assay results published in ChEMBL document CHEMBL1123068, “2-Fluoroformycin and 2-aminoformycin. Synthesis and biological activity” (J Med Chem, 1985).
# B1: Adenosine deaminase (Bos taurus), P56658 (protein)
# chain: MAQTPAFNKPKVELHVHLDGAIKPETILYYGRKRGIALPADTPEELQNIIGMDKPLSLPEFLAKFDYYMPAIAGCREAVKRIAYEFVEMKAKDGVVYVEVRYSPHLLANSKVEPIPWNQAEGDLTPDEVVSLVNQGLQEGERDFGVKVRSILCCMRHQPSWSSEVVELCKKYREQTVVAIDLAGDETIEGSSLFPGHVKAYAEAVKSGVHRTVHAGEVGSANVVKEAVDTLKTERLGHGYHTLEDATLYNRLRQENMHFEVCPWSSYLTGAWKPDTEHPVVRFKNDQVNYSLNTDDPLIFKSTLDTDYQMTKNEMGFTEEEFKRLNINAAKSSFLPEDEKKELLDLLYKAYGMPSPASAEQCL
# What was measured:
# [1] = substrate: Nc1nc(F)nc2c1ncn2[C@@H]1O[C@H](CO)[C@@H](O)[C@@H]1O; assay: Kinetic parameter was determined against adenosine deaminase expressed as Km
# [2] = substrate: Nc1nc(N)c2ncn([C@@H]3O[C@H](CO)[C@@H](O)[C@H]3O)c2n1; assay: (§1) Kinetic parameter was determined against adenosine deaminase expressed as Vmax
# [3] = substrate: Nc1ncnc2c1ncn2[C@@H]1O[C@H](CO)[C@@H](O)[C@H]1O; assay: as §1
# [4] = substrate: Nc1nc(F)nc2c1ncn2[C@@H]1O[C@H](CO)[C@@H](O)[C@@H]1O; assay: as §1
protein,measurement,setting,value
B1,Km,[1],81 µM
same,Vmax (µmol min-1 mg-1),[2],119
same,Vmax (µmol min-1 mg-1),[3],435
same,Vmax,[4],0.78 M/min/mg
